In PMC10397247:

T1: 4H3057-bH
T1 chain: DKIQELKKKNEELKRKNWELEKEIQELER

T2: 4H319-bH
T2 chain: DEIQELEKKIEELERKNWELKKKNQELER

T3: 4H2717-bH
T3 chain: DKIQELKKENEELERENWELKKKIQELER

T4: 4H2839-bH
T4 chain: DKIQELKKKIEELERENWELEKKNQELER

T5: 4H492-bH
T5 chain: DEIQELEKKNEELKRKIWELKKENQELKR

T6: 4H741-bH
T6 chain: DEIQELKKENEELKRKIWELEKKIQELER

T7: 4H2915-bH
T7 chain: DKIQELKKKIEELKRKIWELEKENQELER

T8: 4H477-bH
T8 chain: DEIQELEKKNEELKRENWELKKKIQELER

T9: 4H348-bH
T9 chain: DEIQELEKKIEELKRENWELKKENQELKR

T10: 4H3277-bH
T10 chain: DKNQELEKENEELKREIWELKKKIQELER

T11: 4H40-bH
T11 chain: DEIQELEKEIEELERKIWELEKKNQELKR

T12: 4H591-bH
T12 chain: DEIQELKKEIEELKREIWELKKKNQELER

T13: 4H3497-bH
T13 chain: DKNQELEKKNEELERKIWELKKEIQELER

T14: 4H3298-bH
T14 chain: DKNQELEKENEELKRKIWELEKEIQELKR

T15: 4H626-bH
T15 chain: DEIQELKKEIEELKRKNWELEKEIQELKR

T16: 4H3613-bH
T16 chain: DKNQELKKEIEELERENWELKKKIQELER

T17: 4H3926-bH
T17 chain: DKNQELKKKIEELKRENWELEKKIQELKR

T18: 4H3628-bH
T18 chain: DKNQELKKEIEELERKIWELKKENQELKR

T19: 4H906-bH
T19 chain: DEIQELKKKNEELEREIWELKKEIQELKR

T20: 4H3462-bH
T20 chain: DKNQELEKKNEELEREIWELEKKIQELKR

T21: 4H575-bA
T21 chain: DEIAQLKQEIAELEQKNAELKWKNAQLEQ


Legend:
Experiment in all cases: two-hybrid library CCNG1;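 further: natural log of median RNA to DNA barcode read ratio; higher means stronger binding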
4H3057-bH = target: T1, 4H3057-bH
4H319-bH = target: T2, 4H319-bH
4H2717-bH = target: T3, 4H2717-bH
4H2839-bH = target: T4, 4H2839-bH
4H492-bH = target: T5, 4H492-bH
4H741-bH = target: T6, 4H741-bH
4H2915-bH = target: T7, 4H2915-bH
4H477-bH = target: T8, 4H477-bH
4H348-bH = target: T9, 4H348-bH
4H3277-bH = target: T10, 4H3277-bH
4H40-bH = target: T11, 4H40-bH
4H591-bH = target: T12, 4H591-bH
4H3497-bH = target: T13, 4H3497-bH
4H3298-bH = target: T14, 4H3298-bH
4H626-bH = target: T15, 4H626-bH
4H3613-bH = target: T16, 4H3613-bH
4H3926-bH = target: T17, 4H3926-bH
4H3628-bH = target: T18, 4H3628-bH
4H906-bH = target: T19, 4H906-bH
4H3462-bH = target: T20, 4H3462-bH
4H575-bA = target: T21, 4H575-bA

| Binder | interaction score (4H492-bH) | interaction score (4H741-bH) | interaction score (4H477-bH) | interaction score (4H348-bH) | interaction score (4H3277-bH) | interaction score (4H40-bH) | interaction score (4H591-bH) | interaction score (4H3497-bH) | interaction score (4H3298-bH) | interaction score (4H626-bH) | interaction score (4H3613-bH) | interaction score (4H3926-bH) | interaction score (4H3628-bH) | interaction score (4H906-bH) | interaction score (4H3462-bH) | further results |
| --- | --- | --- | --- | --- | --- | --- | --- | --- | --- | --- | --- | --- | --- | --- | --- | --- |
| DKIQELKKENEELERENWELKKKIQELER [4H2717-bH] | -0.752 | -1.79 | 1.38 | -0.364 | -0.479 | -0.815 |  |  |  |  |  |  |  |  |  | interaction score (4H3057-bH): -0.185; interaction score (4H319-bH): -0.701; interaction score (4H2717-bH): 1.16; interaction score (4H2839-bH): -0.51; interaction score (4H2915-bH): -0.399 |
| DKNQELEKENEELKRKIWELEKEIQELKR [4H3298-bH] |  |  |  |  |  |  | -1.21 | -0.424 | 1.66 | -0.173 | -1.68 | -0.215 | 0.519 | -0.397 | 0.573 | interaction score (4H575-bA): -1.29 |
| DKNQELEKENEELKREIWELKKKIQELER [4H3277-bH] | -0.305 | -2.8 | 0.256 | 0.219 | 1.3 | 0.141 | 0.0179 | -0.711 | -0.709 | -1.06 | -0.0624 | -0.167 | -1.48 | -0.423 | 0.203 |  |
